Results: article PMC12520519, “RESP2: An Uncertainty Aware Multi‐Target Multi‐Property Optimization AI Pipeline for Antibody Discovery” (Advanced Science, 2025)

Molecular target: T1, receptor binding domain (RBD) of the SARS-CoV-2 spike protein, Delta variant (SARS-CoV-2, Delta (B.1.617.2), strain)
T1 construct: also called Delta RBD; source: bought: Acro Biosystems
Test: flow cytometry on cells
Settings: one partner purified

B1: Delta-6 scFv (scFv, V domains shown)
VH: EVQLLESGGGLVQPGGTLRLSCAASGFIVSSNYMSWVRQAPGKGLEWVSLVYPGGSTYYADSVKGRFTVSRDNSKNTLYLQMNSLRAEDMAVYYCARDLPSGVDAVDAFDIWGQGTMVTVSS
VL: DIRVTQSPSSLSASVGDRVSITCRASQIISGYLNWYQQKPGSAPQLLIYASSSLQSGVPPRFSGSRSGTEFTLTISSLQPEDFATYYCQQTYSIPFTFGPGTKVDIK
notes: also called WT Delta-6 scFv; starting clone
With B1 the Kd was 1.3 nM.
